Assay results: FireProtDB (doi:10.1021/bi982209j)
Several values for one entry are separate records, joined by “and”; a condition that tells them apart may be missing. Equal values may be shown once.

Conditions: Equus caballus; pH 7; 10 °C; GdnHCl; Fluorescence; Imidazole 50 mM

Chain of Cytochrome c wild type, P00004 (P00004 whole entry): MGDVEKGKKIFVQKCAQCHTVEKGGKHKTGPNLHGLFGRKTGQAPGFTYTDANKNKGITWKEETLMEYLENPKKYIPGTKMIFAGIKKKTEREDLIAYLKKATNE

Substance: Cytochrome c wild type, P00004
- denaturant m value: 2.7 kcal/mol/M
- unfolding free energy: 8.1 kcal/mol and 7.8 kcal/mol
